US5741673, “Nucleic acid encoding a novel homeobox factor which stimulates insulin expression in pancreatic islet cells” (Research Development Foundation)

Tests used:
[1] = molecular target: T1, ITF-1 full length (CMV expression) (rat, UniProt P52947 SEQ:1-283); test: cell_activity; TSE II somatostatin reporter in HeLa cells
[2] = molecular target: T1, ITF-1 full length (CMV expression); test: cell_activity; TSE I somatostatin reporter in HeLa cells
[3] = molecular target: ITF-1 fragment aa 124-283 (thrombin-cleaved from GST fusion) (rat, UniProt P52947 SEQ:124-283); test: footprint; DNase I; also bound in EMSA; details: tags: GST removed by thrombin
Chain of ITF-1 fragment aa 124-283 (thrombin-cleaved from GST fusion) (P52947 124-283): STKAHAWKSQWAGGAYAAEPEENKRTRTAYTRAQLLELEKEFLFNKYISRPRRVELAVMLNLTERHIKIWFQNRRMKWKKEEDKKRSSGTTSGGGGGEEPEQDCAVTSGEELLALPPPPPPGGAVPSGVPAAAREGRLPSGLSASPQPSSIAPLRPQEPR

T1 sequence (P52947 whole entry): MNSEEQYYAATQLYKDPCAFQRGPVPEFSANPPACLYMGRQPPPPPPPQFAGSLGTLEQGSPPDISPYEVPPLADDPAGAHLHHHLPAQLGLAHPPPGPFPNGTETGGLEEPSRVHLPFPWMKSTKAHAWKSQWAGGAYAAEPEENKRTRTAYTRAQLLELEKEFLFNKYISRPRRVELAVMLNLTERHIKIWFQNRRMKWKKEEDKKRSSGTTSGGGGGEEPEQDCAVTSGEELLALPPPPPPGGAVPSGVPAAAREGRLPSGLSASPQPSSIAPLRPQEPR

Row | Binder | binding result [3] | further results
1 | somatostatin TSE II (dsDNA) DNA 1: GATCTCAGTAATAATCATGCAG DNA 2: CTGCATGATTATTACTGAGATC | – | activity [1]: ~12 fold
2 | somatostatin TSE I (dsDNA) DNA 1: TTGCGAGGCTAATGGTGCG DNA 2: CGCACCATTAGCCTCGCAA | – | activity [2]: ~12 fold
3 | rat insulin I P-Box (dsDNA) DNA 1: CTTAATGGGCCAAACGGCA DNA 2: TGCCGTTTGGCCCATTAAG | binds | –
4 | rat insulin I FLAT (E2) (dsDNA) DNA 1: TTAATAATCTAATTACCC DNA 2: GGGTAATTAGATTATTAA | binds | –
